The values that follow come from patent US20220127313A1.

Non-standard residues stand in square brackets, D forms with d. No end group written: not given here. pS = N[C@@H](COP(=O)(O)O)C(=O)O

Holding throughout (assay): cell-based or functional assay
The target in assay [1] is p38 MAPK δ isoform, O15264.
In assay [2] the target is p38 MAPK γ isoform, P53778.
Assay [3] deals with p38 MAPK β isoform, Q15759.
Sequence of p38 MAPK β isoform, Q15759 (Q15759 whole entry, canonical isoform): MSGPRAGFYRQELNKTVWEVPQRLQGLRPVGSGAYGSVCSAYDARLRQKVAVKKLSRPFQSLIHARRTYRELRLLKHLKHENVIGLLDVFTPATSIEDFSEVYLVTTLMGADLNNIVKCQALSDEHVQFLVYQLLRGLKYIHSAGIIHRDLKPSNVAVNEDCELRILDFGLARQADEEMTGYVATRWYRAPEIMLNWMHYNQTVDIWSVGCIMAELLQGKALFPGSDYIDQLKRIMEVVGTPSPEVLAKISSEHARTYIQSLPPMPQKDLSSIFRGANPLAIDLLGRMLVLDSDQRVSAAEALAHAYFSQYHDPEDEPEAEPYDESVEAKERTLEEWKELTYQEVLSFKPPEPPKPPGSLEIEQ

Sequence of p38 MAPK δ isoform, O15264 (O15264 whole entry, stated change not applied, canonical isoform): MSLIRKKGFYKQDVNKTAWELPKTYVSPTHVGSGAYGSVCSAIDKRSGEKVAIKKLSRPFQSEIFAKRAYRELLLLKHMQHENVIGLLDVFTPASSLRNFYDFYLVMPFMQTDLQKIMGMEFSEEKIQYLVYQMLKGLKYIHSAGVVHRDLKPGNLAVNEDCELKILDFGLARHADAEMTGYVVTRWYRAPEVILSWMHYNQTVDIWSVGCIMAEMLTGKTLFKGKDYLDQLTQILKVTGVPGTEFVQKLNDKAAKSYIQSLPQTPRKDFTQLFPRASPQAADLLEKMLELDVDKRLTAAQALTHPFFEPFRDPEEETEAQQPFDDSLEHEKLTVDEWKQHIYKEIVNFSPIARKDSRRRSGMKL
Sequence of p38 MAPK γ isoform, P53778 (P53778 whole entry, canonical isoform): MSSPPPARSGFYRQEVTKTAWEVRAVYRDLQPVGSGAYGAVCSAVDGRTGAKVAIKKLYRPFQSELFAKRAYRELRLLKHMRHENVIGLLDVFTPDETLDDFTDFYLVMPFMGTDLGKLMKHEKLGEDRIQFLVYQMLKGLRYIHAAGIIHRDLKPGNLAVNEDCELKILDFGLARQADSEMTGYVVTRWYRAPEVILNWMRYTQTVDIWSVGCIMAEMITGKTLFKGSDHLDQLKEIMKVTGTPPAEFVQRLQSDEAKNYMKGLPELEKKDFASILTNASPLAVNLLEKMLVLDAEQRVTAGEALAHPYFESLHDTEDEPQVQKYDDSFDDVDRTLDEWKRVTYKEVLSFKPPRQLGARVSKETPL

Take YARAAARQARASPAARRA[pS]AILPG [NiPp polypeptide (Niban phosphopeptide), …(pS)AILPG]: the % inhibition in kinase profiling screen, NiPp at 100 µM was found to be 3% in assay [1], 3% in assay [2] and 5% in assay [3].
